Numbering of substitutions follows the chain as printed. Names and notes keep the numbering of the source.
B1: HzTFPI4F36-CDRgrafted (initial CDR grafted version of humanized TFPI4F36) (antibody, human IgG4 S228P, kappa)
heavy: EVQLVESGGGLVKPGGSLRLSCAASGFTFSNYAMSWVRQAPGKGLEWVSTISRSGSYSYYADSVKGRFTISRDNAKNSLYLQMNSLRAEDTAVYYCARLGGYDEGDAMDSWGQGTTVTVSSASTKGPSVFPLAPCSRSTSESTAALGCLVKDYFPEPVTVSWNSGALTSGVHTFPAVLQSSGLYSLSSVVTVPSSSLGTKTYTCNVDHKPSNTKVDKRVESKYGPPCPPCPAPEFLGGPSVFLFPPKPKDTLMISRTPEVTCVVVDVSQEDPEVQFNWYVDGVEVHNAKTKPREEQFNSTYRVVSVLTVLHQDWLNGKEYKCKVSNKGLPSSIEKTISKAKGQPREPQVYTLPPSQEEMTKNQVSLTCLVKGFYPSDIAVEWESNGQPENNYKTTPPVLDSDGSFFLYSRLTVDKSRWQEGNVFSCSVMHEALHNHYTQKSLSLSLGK
light: DIVMTQTPLSLSVTPGQPASISCKSSQSLLESDGKTYLNWYLQKPGQSPQLLIYLVSILDSGVPDRFSGSGSGTDFTLKISRVEAEDVGVYYCLQATHFPQTFGGGTKVEIKRTVAAPSVFIFPPSDEQLKSGTASVVCLLNNFYPREAKVQWKVDNALQSGNSQESVTEQDSKDSTYSLSSTLTLSKADYEKHKVYACEVTHQGLSSPVTKSFNRGEC
notes: human kappa/IgG4(S241P); also called hz4F36CDRgraft
B2: HzTFPI4F36 (mAbTFPI2021) humanized monoclonal antibody (antibody, human IgG4 S228P, kappa, V domains shown)
VH: EVQLVESGGGLVKPGGSLRLSCAASGFTFSNYAMSWVRQTPEKRLEWVATISRSGSYSYFPDSVQGRFTISRDNAKNSLYLQMNSLRAEDTAVYYCARLGGYDEGDAMDSWGQGTTVTVSS
VL: DIVMTQTPLSLSVTPGQPASISCKSSQSLLESDGKTYLNWYLQKPGQSPQLLIYLVSILDSGVPDRFSGSGSGTDFTLKISRVEAEDVGVYYCLQATHFPQTFGGGTKVEIKR
notes: human kappa/IgG4(S241P); also called mAb2021; mAbTFPI4F36
B3: MuTFPI4F36 (TFPI-4F36A1B2) murine monoclonal antibody (antibody, mouse IgG1, kappa, V domains shown)
VH: B2 VH with Q3E, R19K, S78T, N84S, A88S, V93M, A97T, T116S
VL: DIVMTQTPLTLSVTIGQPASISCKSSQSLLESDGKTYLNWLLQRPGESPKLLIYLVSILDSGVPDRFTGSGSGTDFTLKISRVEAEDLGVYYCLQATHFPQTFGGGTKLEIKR
notes: murine kappa / IgG1; also called anti-TFPI4F36A1B2; Murine TFPI4F36
B4: HzTFPI4F36 HC-G42E, G44R, CDR2 (antibody, human IgG4 S228P, kappa, name in Kabat numbering, V domains shown)
VH: B2 VH with T40A, A49S
VL: B2 VL
notes: Mutated CDR-grafted heavy chain with wild type CDR-grafted light chain; Kabat numbering; also called HzTFPI4F36 G42E, G44R, Y59F, A60P, K64Q
B5: HzTFPI4F36 HC-G42E, G44R, A60P, K64Q (antibody, human IgG4 S228P, kappa, name in Kabat numbering, V domains shown)
VH: B2 VH with T40A, A49S, F60Y
VL: B2 VL
notes: Mutated CDR-grafted heavy chain with wild type CDR-grafted light chain; Kabat numbering; also called HzTFPI4F36 G42E, G44R, A60P, K64Q
B6: HzTFPI4F36 LC-Y36L (antibody, human IgG4 S228P, kappa, name in Kabat numbering, V domains shown)
VH: B2 VH with T40A, E42G, R44G, A49S, F60Y, P61A, Q65K
VL: B2 VL with Y41L
notes: Mutated CDR-grafted light chain with wild type CDR-grafted heavy chain; Kabat numbering
B7: HzTFPI4F36 LC-P15I (antibody, human IgG4 S228P, kappa, name in Kabat numbering)
heavy: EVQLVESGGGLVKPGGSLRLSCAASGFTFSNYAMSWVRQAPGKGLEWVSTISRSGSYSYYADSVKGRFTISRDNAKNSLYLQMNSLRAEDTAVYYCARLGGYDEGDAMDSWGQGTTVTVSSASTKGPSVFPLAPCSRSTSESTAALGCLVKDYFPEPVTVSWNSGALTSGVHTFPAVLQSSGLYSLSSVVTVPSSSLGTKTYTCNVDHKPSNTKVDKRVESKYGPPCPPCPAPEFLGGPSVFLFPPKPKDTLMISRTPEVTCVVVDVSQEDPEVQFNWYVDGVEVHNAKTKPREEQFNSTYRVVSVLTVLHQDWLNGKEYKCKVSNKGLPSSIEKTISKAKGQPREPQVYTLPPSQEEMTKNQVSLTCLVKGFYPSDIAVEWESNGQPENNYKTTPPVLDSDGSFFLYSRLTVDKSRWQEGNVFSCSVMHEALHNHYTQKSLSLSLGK
light: B1 light with P15I
notes: as for B6
B8: HzTFPI4F36 LC-S63T (antibody, human IgG4 S228P, kappa, name in Kabat numbering, V domains shown)
VH: B2 VH with T40A, E42G, R44G, A49S, F60Y, P61A, Q65K
VL: B2 VL with S68T
notes: Mutated CDR-grafted light chain with wild type CDR-grafted heavy chain; human kappa/IgG4(S241P)
B9: HzTFPI4F36 LC-P15I, FR2 (antibody, human IgG4 S228P, kappa, name in Kabat numbering)
heavy: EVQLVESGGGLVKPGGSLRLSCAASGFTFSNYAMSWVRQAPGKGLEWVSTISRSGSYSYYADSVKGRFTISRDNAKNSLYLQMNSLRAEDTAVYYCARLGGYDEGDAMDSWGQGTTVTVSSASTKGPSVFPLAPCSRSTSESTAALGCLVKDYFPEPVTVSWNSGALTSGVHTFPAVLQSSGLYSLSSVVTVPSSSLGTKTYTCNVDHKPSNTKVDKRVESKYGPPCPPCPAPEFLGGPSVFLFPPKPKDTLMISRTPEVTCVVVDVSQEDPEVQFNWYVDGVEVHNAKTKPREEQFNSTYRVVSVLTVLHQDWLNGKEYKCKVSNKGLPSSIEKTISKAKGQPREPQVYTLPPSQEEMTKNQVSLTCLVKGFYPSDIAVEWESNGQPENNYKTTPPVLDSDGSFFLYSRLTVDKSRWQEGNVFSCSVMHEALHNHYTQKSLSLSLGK
light: B1 light with P15I, Y41L, K44R, Q47E, Q50K
notes: as for B6
B10: HzTFPI4F36 LC-FR2 (antibody, human IgG4 S228P, kappa, name in Kabat numbering)
heavy: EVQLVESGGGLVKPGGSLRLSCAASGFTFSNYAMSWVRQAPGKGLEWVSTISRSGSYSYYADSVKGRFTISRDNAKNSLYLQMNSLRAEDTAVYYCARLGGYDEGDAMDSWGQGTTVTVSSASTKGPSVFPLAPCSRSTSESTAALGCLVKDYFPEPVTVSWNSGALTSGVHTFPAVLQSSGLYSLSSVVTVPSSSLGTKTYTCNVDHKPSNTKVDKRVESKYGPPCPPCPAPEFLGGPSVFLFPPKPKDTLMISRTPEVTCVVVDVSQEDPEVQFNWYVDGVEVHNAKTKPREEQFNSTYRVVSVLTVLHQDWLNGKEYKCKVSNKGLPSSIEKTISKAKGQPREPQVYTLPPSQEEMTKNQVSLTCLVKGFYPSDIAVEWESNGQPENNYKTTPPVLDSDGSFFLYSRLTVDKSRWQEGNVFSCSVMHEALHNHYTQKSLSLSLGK
light: B1 light with Y41L, K44R, Q47E, Q50K
notes: Mutated CDR-grafted light chain with wild type CDR-grafted heavy chain; Kabat numbering; also called patch mutant in LC FR2
B11: HzTFPI4F36 LC-K39R, Q42E, Q45K (antibody, human IgG4 S228P, kappa, name in Kabat numbering, V domains shown)
VH: B2 VH with T40A, E42G, R44G, A49S, F60Y, P61A, Q65K
VL: B2 VL with K44R, Q47E, Q50K
notes: as for B6
B12: HzTFPI4F36 HC-FR3, S77T (antibody, human IgG4 S228P, kappa, name in Kabat numbering, V domains shown)
VH: EVQLVESGGGLVKPGGSLRLSCAASGFTFSNYAMSWVRQAPGKGLEWVSTISRSGSYSYYADSVKGRFTISRDNAKNTLYLQMSSLRSEDTAMYYCARLGGYDEGDAMDSWGQGTTVTVSS
VL: B2 VL
notes: Mutated CDR-grafted heavy chain with wild type CDR-grafted light chain; Kabat numbering
B13: HzTFPI4F36 HC-K64Q (antibody, human IgG4 S228P, kappa, name in Kabat numbering, V domains shown)
VH: B12 VH with K65Q, T78S, S84N, S88A, M93V
VL: B2 VL
notes: as for B12
B14: HzTFPI4F36 HC-FR2 (antibody, human IgG4 S228P, kappa, name in Kabat numbering, V domains shown)
VH: B2 VH with A49S, F60Y, P61A, Q65K
VL: B2 VL
notes: Mutated CDR-grafted heavy chain with wild type CDR-grafted light chain; Kabat numbering; also called patch mutant in HC FR2
B15: HzTFPI4F36 HC-G44R (antibody, human IgG4 S228P, kappa, name in Kabat numbering, V domains shown)
VH: B12 VH with G44R, T78S, S84N, S88A, M93V
VL: B2 VL
notes: as for B12
B16: HzTFPI4F36 HC-FR2, CDR2 (antibody, human IgG4 S228P, kappa, name in Kabat numbering, V domains shown)
VH: B2 VH with A49S
VL: B2 VL
notes: as for B12
B17: HzTFPI4F36 HC-FR3, A93T (antibody, human IgG4 S228P, kappa, name in Kabat numbering, V domains shown)
VH: B12 VH with T78S, A97T
VL: B2 VL
notes: as for B12
B18: HzTFPI4F36 HC-KABAT CDR2 (antibody, human IgG4 S228P, kappa, name in Kabat numbering, V domains shown)
VH: B2 VH with T40A, E42G, R44G, A49S
VL: B2 VL
notes: as for B12
B19: HzTFPI4F36 HC-S49A (antibody, human IgG4 S228P, kappa, name in Kabat numbering, V domains shown)
VH: B12 VH with S49A, T78S, S84N, S88A, M93V
VL: B2 VL
notes: as for B12
B20: HzTFPI4F36 HC-A60P (antibody, human IgG4 S228P, kappa, name in Kabat numbering, V domains shown)
VH: B12 VH with A61P, T78S, S84N, S88A, M93V
VL: B2 VL
notes: as for B12
B21: HzTFPI4F36 HC-G44R, A60P, K64Q (antibody, human IgG4 S228P, kappa, name in Kabat numbering, V domains shown)
VH: B2 VH with T40A, E42G, A49S, F60Y
VL: B2 VL
notes: as for B12
B22: HzTFPI4F36 HC-A93T (antibody, human IgG4 S228P, kappa, name in Kabat numbering, V domains shown)
VH: B12 VH with T78S, S84N, S88A, M93V, A97T
VL: B2 VL
notes: as for B12
B23: HzTFPI4F36 HC-G42E, G44R, S49A CDR2 (antibody, human IgG4 S228P, kappa, name in Kabat numbering, V domains shown)
VH: B2 VH with T40A
VL: B2 VL
notes: as for B12
B24: HzTFPI4F36 HC-Y59F, A60P (antibody, human IgG4 S228P, kappa, name in Kabat numbering, V domains shown)
VH: B2 VH with T40A, E42G, R44G, A49S, Q65K
VL: B2 VL
notes: as for B12
B25: HzTFPI4F36 HC-FR3 (antibody, human IgG4 S228P, kappa, name in Kabat numbering, V domains shown)
VH: B12 VH with T78S
VL: B2 VL
notes: as for B12
B26: HzTFPI4F36 HC-Q3E (antibody, human IgG4 S228P, kappa, name in Kabat numbering)
heavy: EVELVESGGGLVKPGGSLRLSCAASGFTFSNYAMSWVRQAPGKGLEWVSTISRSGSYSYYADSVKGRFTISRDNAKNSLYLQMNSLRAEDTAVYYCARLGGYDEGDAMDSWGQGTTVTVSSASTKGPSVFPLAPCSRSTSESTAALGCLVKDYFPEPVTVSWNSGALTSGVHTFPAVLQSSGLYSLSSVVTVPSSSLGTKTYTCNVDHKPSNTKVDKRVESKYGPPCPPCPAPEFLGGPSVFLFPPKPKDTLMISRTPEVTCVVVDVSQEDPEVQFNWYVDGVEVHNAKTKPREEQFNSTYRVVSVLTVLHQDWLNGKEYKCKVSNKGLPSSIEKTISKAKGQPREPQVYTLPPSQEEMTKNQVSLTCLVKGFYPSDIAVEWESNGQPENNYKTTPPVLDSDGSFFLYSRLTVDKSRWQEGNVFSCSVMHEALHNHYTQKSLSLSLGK
light: B1 light
notes: Mutated CDR-grafted heavy chain with wild type CDR-grafted light chain; human kappa/IgG4(S241P)
B27: HzTFPI4F36 HC-Y59F (antibody, human IgG4 S228P, kappa, name in Kabat numbering, V domains shown)
VH: B12 VH with Y60F, T78S, S84N, S88A, M93V
VL: B2 VL
notes: as for B12
B28: HzTFPI4F36 HC-FR2, S49A (antibody, human IgG4 S228P, kappa, name in Kabat numbering, V domains shown)
VH: B2 VH with F60Y, P61A, Q65K
VL: B2 VL
notes: as for B12
B29: HzTFPI4F36 HC-S77T (antibody, human IgG4 S228P, kappa, name in Kabat numbering, V domains shown)
VH: B12 VH with S84N, S88A, M93V
VL: B2 VL
notes: as for B12
B30: mouse/human chimera version of the anti-TFPI4F36 antibody (ChimTFPI4F36) (antibody, IgG4, V domains shown)
VH: B2 VH with Q3E, R19K, S78T, N84S, A88S, V93M, A97T, T116S
VL: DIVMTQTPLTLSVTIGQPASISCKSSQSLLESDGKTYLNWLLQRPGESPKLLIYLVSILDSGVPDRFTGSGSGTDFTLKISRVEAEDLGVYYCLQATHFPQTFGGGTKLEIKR
notes: also called Chimeric TFPI4F36; chimeric anti-TFPI4F36

Each binder was assayed against T1, recombinant full length human tissue factor pathway inhibitor (TFPI) (human, UniProt P10646 29-304) (assay: SPR (Biacore)).
T1 construct: also called TFPI1; human TFPI
From the text: The affinity analyses were done using SRP as described below.
(§1) These were followed by a direct binding kinetic procedure on selected mAb constructs, with the monoclonal antibody covalently coupled via free amine groups to the carboxymethylated dextrane membrane (CM5) on the sensor chip surface.
In the case of B1, the “fold lower affinity than the original mouse TFPI4F36 antibody” value is reported as no less than 100 fold. In the case of B2, the Kd is reported as roughly 0.025 nM. For B3, the Kd was roughly 0.03 nM.

The binders below were run against T1, recombinant full length human tissue … (assay: SPR (Biacore), TFPI).
Work on B4 yielded a Kd of 0.039 nM. With B5 the Kd was 0.093 nM. B2 gave a Kd of 0.026 nM.

Each binder was assayed against T1, recombinant full length human tissue … (assay: cell-based or functional assay).
B2 was tested, and the “IC50, neutralization of TFPI inhibition of FXa” value was 12.6 nM.

Target: T1, recombinant full length human tissue …
Test: cell-based or functional assay
Remark: another data set of the same source
B2 was tested, and the “IC50, neutralization of TFPI inhibition of FVIIa/TF/FX” value was 3.8 nM.

The binders below were run against T1, recombinant full length human tissue … (assay: SPR (Biacore), recombinant human TFPI).
B6 gave a Kd greater than 0.03 nM. B7 was tested, and the Kd was 17 nM. Binder B8 has a Kd of 7.8 nM. In the case of B9, the Kd is reported as 0.64 nM. B10 was tested, and the Kd was 0.63 nM. B11 was tested, and the Kd was greater than 0.03 nM.

Target: T1, recombinant full length human tissue …
Test: SPR (Biacore), recombinant human TFPI
Remark: another data set of the same source
In the case of B12, the Kd is reported as 7.7 nM. With B13 the Kd was 2.5 nM. Binder B14 has a Kd of 0.88 nM. B15 was tested, and the Kd was 2.3 nM. Work on B16 yielded a Kd greater than 0.03 nM. Binder B17 has a Kd of 4.1 nM. Work on B18 yielded a Kd of 0.9 nM. With B19 the Kd was 3 nM. For B20, the Kd was 2.2 nM. For B21, the Kd was 0.03 nM. Work on B4 yielded a Kd of 0.039 nM. Work on B22 yielded a Kd of 2.7 nM. Binder B23 has a Kd greater than 0.03 nM. With B24 the Kd was 2.3 nM. Work on B25 yielded a Kd of 5.3 nM. Binder B26 has a Kd of 5.8 nM. In the case of B5, the Kd is reported as 0.093 nM. In the case of B27, the Kd is reported as 5.5 nM. B28 gave a Kd of 1.3 nM. B29 was tested, and the Kd was 1.5 nM. In the case of B2, the Kd is reported as 0.026 nM.

What follows are binders tested against T1, recombinant full length human tissue … (assay: SPR (Biacore), recombinant human TFPI over the mAb).
Method: Binding interaction analysis was obtained by Surface Plasmon Resonance in a Biacore 3000. Capture of the relevant monoclonal antibody at a fixed concentration was obtained with immobilised mouse anti-IgG. Different concentrations of TFPI were tested.
as §1
With B1 the Kd was 2.06 nM and the kon was 1.07e+06 M⁻¹ s⁻¹. For B3, the Kd was 0.0282 nM and the kon was 4.7e+06 M⁻¹ s⁻¹. With B30 the Kd was 0.0162 nM and the kon was 8.88e+06 M⁻¹ s⁻¹.

These binders were tested against T1, recombinant full length human tissue … (assay: SPR (Biacore T-100), mAb immobilised, full length human TFPI).
Method: (§2) Binding interaction analysis was obtained by Surface Plasmon Resonance in a Biacore T-100 instrument. Capture of the relevant monoclonal antibody at a fixed concentration was obtained by direct immobilization to a CM5 chip of the mAb to a level of 500-1000 RU in 10 mM sodium acetate pH 4.5-5.0. […] Running and dilution buffer: 10 mM HEPES, 150 mM, 0.005% p20, pH 7.4. Regeneration was obtained by 10 mM Glycine, pH 1.7. Determination of kinetic and binding constants (kₒₙ, koff, KD) was obtained assuming a 1:1 interaction of TFPI and the antibody of interest using the Biacore T100 evaluation software. […] Regeneration of the chip was obtained by 10 mM Glycine, pH 1.7.
B2 gave a Kd of 0.015 nM.

The binders below were run against T2, human TFPI short form (1-161 amino acid residues) (human, UniProt P10646 29-189) (assay: SPR (Biacore T-100), mAb immobilised, TFPI161 (K1 and K2 domains)).
T2 construct: also called TFPI161; TFPI (1-161)
Method: as §2
For B2, the Kd was 0.0455 nM.

These binders were tested against T1, recombinant full length human tissue … (assay: SPR (Biacore T-100), mAb immobilised on CM5 chip, full length human TFPI, 1:1 model).
Method: as §2
B2 showed a Kd of 0.015 nM, a koff of 3.58e-05 s⁻¹ and a kon of 2.39e+06 M⁻¹ s⁻¹.
